Tested on: MS2 coat protein
Experiment: apparent KD of MS2 coat protein; higher = weaker reporter binding
Settings: Eterna round: R107
Method in brief: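 The buffer was 100 mM Tris-HCl pH 7.5 with 80 mM KCl and 4 mM MgCl2, used without or with constant ligand. In it, RNA switches transcribed on-chip from Illumina sequencing clusters were titrated with SNAP-549-labelled MS2 coat protein in twofold steps from 0.7 or 1.5 nM to 3 µM. Apparent KD for each design is the median of its normalised cluster binding-curve fits.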

[1] = input ligand: theophylline 20 uM
[2] = input ligand: theophylline 2 mM
[3] = input ligand: tryptophan 2.4 mM

Row | Sequence | apparent KD of MS2 coat protein (input ligand: arginine 13.2 mM) [nM] | apparent KD of MS2 coat protein (input ligand: none) [nM] | apparent KD of MS2 coat protein [1] [nM] | apparent KD of MS2 coat protein [2] [nM] | apparent KD of MS2 coat protein [3] [nM]
1 | UCGCUCUGGGUGAAUUCCGGAGAUGUGGAAGGAGCGGACGAAAGUCCAGGUAGGUCGCCAUCGAACAUGAGGAUCACCCAUGUAC [Same State - Arginine A (Freestyle 24)] | 55.8 | 93.2 | 105 | 165 | 93.7
2 | CCUGAUAACUGAAGGAGCGAGAAACCCUACAUGAGGAUCACCCAUGUAUACACGGGAACUUCUCAGGUAGGUCGCAGUAUGUCGG [Rienat] | 71.2 | 80.2 | 106 | 145 | 93
3 | CGGUUUGUGAUGGAUACCAGCAGAGAAAAUGUUUAUCCUAACAUGAGGAUCACCCAUGUGUGCCCUUGGCAGCUGUUGUGGGCUG [8.W] | 46 | – | 72.6 | – | 49.7
4 | AUCCAUAGCCGAAGGAGCGCAGUAGGAUGACAUGAGGAUCACCCAUGUGUGUGAUGUGGAUUGCAGGUAGGUCGCGGAGUGGGAU [Exclusion - Arginine B (Freestyle 6)] | 35 | 58.7 | 135 | 63 | 47.2
5 | CCAUGCGUAGGAAGGAGCGCAUACUUCACAUGAGGAUCACCCAUGUCGAGACGUGAGUCAGUGCAGGUAGGUCGCCUACGCAUGG [Same State - Arginine B (Freestyle 27)] | 16.6 | 17.6 | 24.3 | 20.6 | 19.4
6 | CCUCGUGCAACAUGAGGAUCACCCAUGUACCGAGGACCGGUACGGCCGCCACUCGAAAACGAGUACCAUUAGCGAAAGCUGAUGG [Trp A SS mod1] | 11.9 | 13.1 | 16.4 | 14.2 | 14.1
7 | GAGAGUGUGUGCGAAAGCACAGAUCUGGAAGGAGCGUAGAAAGAUACAGGUAGGUCGCCGGGACAUGAGGAUCACCCAUGUGUAU [ArgiA-ms2@63] | 38.9 | 37.7 | 52.6 | 35.8 | 34.2
8 | AUACGUAACAGAAGGAGCGCACCGACAUGAGGAUCACCCAUGUGGGAUGGGACUCUUUUGGUGCAGGUAGGUCGCUGUCACGCAU [Beatattian] | 23.7 | 41.4 | 99.4 | 61.2 | 40.3
9 | AUAACAUGAGGAUCACCCAUGUAUUGGUAACGAGGACCGGUACGGCCGCCACUCGUAUUUUGGUGGUAUUAUAUAUAUAUGAUUA [JR_SSTryptoA_Sub017] | 24.1 | – | 28.9 | 20.6 | –
10 | AUUCAUAACUGAAGGAGCGUGAUAUAAAUUUUUACAUGAGGAUCACCCAUGUUUCAUCGAUCACAGGUAGGUCGCAGAUUCUCAU [JR_SSArginiB_Sub012] | 31.1 | 55.3 | 59.1 | 45.1 | 37.9
11 | AAUAAACAUGAGGAUCACCCAUGUAUGGAAGGAGCGGUGAAUAAACCAGGUAGGUCGCCAGUGUGAGGGUCAUCUAUGUAAUAAA [Exclusion - Arginine A (Freestyle 2)] | 68.4 | 42.7 | 43.1 | 56.2 | 37.9
12 | UGUACCUAGUCGGCCGCCACUCCAAAAGGAGAGGAUCACCCUCCUAAACGAGUCAAAGACUCGAGGAGGACCGGGACUAGGUACU [Palindromic MS2 #AlternativeMS2 #Palindrome #StaticStem] | 30 | 30.4 | 41.8 | 33.9 | 14
13 | GCCGGACUUUCGGCCGCCACUGAGAGAGUCGUGUGAACAUGAGGAUCACCCAUGUAAUAUAUAUACAGGACCGGGAGGGUCCGGC [4.T] | 12.3 | 12.1 | 18.3 | 12.7 | 10.2
14 | AGCUCUGAUACGGCCGCCACUAGAUGGUGUUGUAAGAGACGCCUACAUGAGGAUCACCCAUGUCAUAGGACCGGGUAUAAAUACA [theeternabot_sameState_MS2_Trp_B_8] | 27.8 | 26.4 | 30.7 | 46.4 | 18.2
15 | AAAGUUGAUGAGUUGCGUUUGUGUUCCGAAGGAGCGAGAAUUAUCUCAGGUAGGUCGCGGAACAUGAGGAUCACCCAUGUAUAAA [XArg-A 19 NuV1&2 original #dotplot2>1] | 35.3 | 36.3 | 46.2 | 41.6 | 34.3
16 | UGUGUAAUUGUCUGGUAGAUUUAUUUUUUUCGAGGACCGGUACGGCCGCCACUCGUUAUUUACAUGAGGAUCACCCAUGUUAGCU [JR_ExcTryptoA_Sub007] | 12.4 | – | 22.3 | 15.5 | –
